B1: HDV Ribozyme (parent)
chain: GGCCGGCAUGGUCCCAGCCUCCUCGCUGGCGCCGGCUGGGCAACAUUCCGAGGGGACCGUCCCCUCGGUAAUGGCGAAUGGGACCCA

The series covers variants of B1. Nature of the series: self-cleavage, relative activity (ratio to wild type); higher = more cleavage; co-transcriptional.
Regarding GGCCGGCAUGGUCCCAGCCUCCUCGCUGGCUCCGGCUGGGGAACAUUCCGAGGGGACCGUCCCCUCGGUAAUGGCGAAUGGGACCCA [G31U C41G], the self-cleavage was found to be 0.0437.
The result for GGCCGGCAUGGUCCCAGCCUCCUCGCUGGCUCCGGCUGGGUAACAUUCCGAGGGGACCGUCCCCUCGGUAAUGGCGAAUGGGACCCA [G31U C41U] reads 0.151; that for GGCCGGCAUGGUCCCAGCCUCCUCGCUGGCUCCGGCUGGGCAACAUUCCGAAGGGACCGUCCCCUCGGUAAUGGCGAAUGGGACCCA [G31U G52A], 0.431; that for GGCCGGCAUGGUCCCAGCCUCCUCGCUGGCUCCGGCUGGGCAACAUUCCGAGGGGACUGUCCCCUCGGUAAUGGCGAAUGGGACCCA [G31U C58U], 0.571.
Take GGCCGGCAUGGUCCCAGCCUCCUCGCUGGCUCCGGCUGGGCAACAUUCCGAGGGGACGGUCCCCUCGGUAAUGGCGAAUGGGACCCA [G31U C58G]: the self-cleavage turned out to be 0.282.
In the case of GGCCGGCAUGGUCCCAGCCUCCUCGCUGGCUCCGGCUGGGCAACAUUCCGAGGGGACCGUCCCCUCGGUAAUGGCAAAUGGGACCCA [G31U G76A], the self-cleavage was determined as 0.369.
Regarding GGCCGGCAUGGUCCCAGCCUCCUCGCUGGCUCCGGCUGGGCAACAUUCCGAGGGGACCGUCCCCUCGGUAAUGGCGAAUGGGACCCG [G31U A87G], the self-cleavage is 0.323.
On to GGCCGGCAUGGUCCCAGCCUCCUCGCUGGCUCCGGCUGGGCAACAUUCCGAGGGGACCGUCCCCUCGGUAAUGGCGAAUGGGACCCC [G31U A87C], for which the self-cleavage amounted to 0.358.
Regarding GGCCGGCAUGGUCCCAGCCUCCUCGCUGGCUCCGGCUGGGCAACAUUCCGAGGGGACCGUCCCCUCGGUUAUGGCGAAUGGGACCCA [G31U A70U], the self-cleavage was 0.365.
Turning to GGCCGGCAUGGUCCCAGCCUCCUCGCUGGCUCCGGCUGGGCAACAUUCCGAGGGGAGCGUCCCCUCGGUAAUGGCGAAUGGGACCCA [G31U C57G], the self-cleavage was determined as 0.439.
The result for GGCCGGCAUGGUCCCAGCCUCCUCGCUGGCUCCGGCUGGGCAACAUUCAGAGGGGACCGUCCCCUCGGUAAUGGCGAAUGGGACCCA [G31U C49A] reads 0.451; that for GGCCGGCAUGGUCCCAGCCUCCUCGCUGGCUCUGGCUGGGCAACAUUCCGAGGGGACCGUCCCCUCGGUAAUGGCGAAUGGGACCCA [G31U C33U], 0.125; that for GGCCGGCAUGGUCCCAGCCUCCUCGCUGGCUCAGGCUGGGCAACAUUCCGAGGGGACCGUCCCCUCGGUAAUGGCGAAUGGGACCCA [G31U C33A], 0.0231.
The result for GGCCGGCAUGGUCCCAGCCUCCUCGCUGGCUCGGGCUGGGCAACAUUCCGAGGGGACCGUCCCCUCGGUAAUGGCGAAUGGGACCCA [G31U C33G] reads 0.0639.
For the variant GGCCGGCAUGGUCCCAGCCUCCUCGCUGGCUCCGGCUGGGCAACAUUCCGAGGGGCCCGUCCCCUCGGUAAUGGCGAAUGGGACCCA [G31U A56C], the self-cleavage turned out to be 0.389.
The result for GGCCGGCAUGGUCCCAGCCUCCUCGCUGGCUCCGGCUGGGCAACAUUCCGAGGGGACCGUCCCCUCGGUAAUGGCGAAUGGGAACCA [G31U C84A] reads 0.146; that for GGCCGGCAUGGUCCCAGCCUCCUCGCUGGCUCCGGCUGGGCAACAUUCCGAGGGGACCGUCCCCUCGGUAAUGGCGAAUGGGAUCCA [G31U C84U], 0.363.
Turning to GGCCGGCAUGGUCCCAGCCUCCUCGCUGGCUCCGGCUGGGCAACAUUCCGAGGGGACCGUCCCCUCGGUAAUGGCGAAUGGGAGCCA [G31U C84G], the self-cleavage was determined as 0.138.
For the variant GGCCGGCAUGGUCCCAGCCUCCUCGCUGGCUCCGGCUGGGCAACAUUCCGAGGGGACCGUCCCCUCGGUAAUGGCGAAUGGGACCAA [G31U C86A], the self-cleavage is 0.394.
The result for GGCCGGCAUGGUCCCAGCCUCCUCGCUGGCUCCGGCUGGGCAACAUUCCGAGGGGACCGUCCCCUCGGUAAUGGCGAAUGGGACCGA [G31U C86G] reads 0.451.
Take GGCCGGCAUGGUCCCAGCCUCCUCGCUGGCUCCGUCUGGGCAACAUUCCGAGGGGACCGUCCCCUCGGUAAUGGCGAAUGGGACCCA [G31U G35U]: the self-cleavage is 0.0443.
For the variant GGCCGGCAUGGUCCCAGCCUCCUCGCUGGCUCCGGCUGGGCAACAUUCCGAGGGGACCGUCCUCUCGGUAAUGGCGAAUGGGACCCA [G31U C63U], the self-cleavage worked out at 0.41.
The result for GGCCGGCAUGGUCCCAGCCUCCUCGCUGGCUCCGGCUGGGCAACAUUCCGAGGGGACCGUCCACUCGGUAAUGGCGAAUGGGACCCA [G31U C63A] reads 0.468.
Consider GGCCGGCAUGGUCCCAGCCUCCUCGCUGGCUCCGGCUGGGCAACAUUCCGAGGGGACCGUCCGCUCGGUAAUGGCGAAUGGGACCCA [G31U C63G], for which the self-cleavage was determined as 0.483.
Turning to GGCCGGCAUGGUCCCAGCCUCCUCGCUGGCUCCGGCUGGGCAACAUUCCGAGGGGACCUUCCCCUCGGUAAUGGCGAAUGGGACCCA [G31U G59U], the self-cleavage came to 0.617.
Consider GGCCGGCAUGGUCCCAGCCUCCUCGCUGGCUCCGGCUGGGCAACAUUCCGAGGGGACCAUCCCCUCGGUAAUGGCGAAUGGGACCCA [G31U G59A], for which the self-cleavage came to 0.546.
With GGCCGGCAUGGUCCCAGCCUCCUCGCUGGCUCCGGCUGGGCAACAUUCCGAGGGGACCGUCCCCUCCGUAAUGGCGAAUGGGACCCA [G31U G67C], the self-cleavage came out at 0.245.
In the case of GGCCGGCAUGGUCCCAGCCUCCUCGCUGGCUCCUGCUGGGCAACAUUCCGAGGGGACCGUCCCCUCGGUAAUGGCGAAUGGGACCCA [G31U G34U], the self-cleavage came out at 0.0791.
For GGCCGGCAUGGUCCCAGCCUCCUCGCUGGCUCCGGCUGGGCAACAUUCCGAGGGGACCGUCCCCUCGGUAAUGACGAAUGGGACCCA [G31U G74A], the self-cleavage worked out at 0.151.
The result for GGCCGGCAUGGUCCCAGCCUCCUCGCUGGCUUCGGCUGGGCAACAUUCCGAGGGGACCGUCCCCUCGGUAAUGGCGAAUGGGACCCA [G31U C32U] reads 0.115.
Consider GGCCGGCAUGGUCCCAGCCUCCUCGCUGGCUGCGGCUGGGCAACAUUCCGAGGGGACCGUCCCCUCGGUAAUGGCGAAUGGGACCCA [G31U C32G], for which the self-cleavage stood at 0.0978.
With GGCCGGCAUGGUCCCAGCCUCCUCGCUGGCUCCGGCUGGGCAACAUUCCGAGGGGACCGUCCCCUCGGUAAUAGCGAAUGGGACCCA [G31U G73A], the self-cleavage worked out at 0.0627.

The record behind these values is the RNAGym collection of RNA variant scans (doi:10.7554/elife.80360).
